Patent US7985587B2, “Methods of culturing dermal papilla cells” (The General Hospital Corporation, priority 2000, dated 2011)

B1: Wnt3a: Wnt protein supplied by chick embryo fibroblast feeder cells infected with RCASBP(A) retroviral vector encoding Wnt3a (protein, UniProt Q2LMP1 19-352, looked up)
Protein Wnt-3a: SYPIWWSLAIGHQYSSLGTQPILCGSIPGLVPKQLRFCRNYVEIMPSVAEGVKIGIQECQHQFRGRRWNCTTVNDSLAIFGPVLDKATRESAFVHAIASAGVAFAVTRSCAEGSATICGCDTRHKGSPGEGWKWGGCSEDVEFGSMVSREFADARENRPDARSAMNRHNNEAGRTSIIELMHLKCKCHGLSGSCEVKTCWWSQPDFRVIGDYLKDKYDSASEMVVEKHRESRGWVETLRPKYNFFKAPTEKDLVYYENSPNFCEPNPETGSFGTRDRICNVTSHGIDGCDLLCCGRGHNTRTEKRKEKCHCIFHWCCYVRCQECIRVYDVHTCK
B2: Wnt 4: Wnt protein supplied by chick embryo fibroblast feeder cells infected with RCASBP(A) retroviral vector encoding Wnt4 (protein, UniProt P49337 23-351, looked up)
Protein Wnt-4: SNWLYLAKLSSVGSISEEETCEKLKGLIQRQVQMCKRNLEVMDSVRRGAQLAIEECQYQFRNRRWNCSTLDTLPVFGKVVTQGTREAAFVYAISSAGVAFAVTRACSSGELDKCGCDRTVQGGSPQGFQWSGCSDNIAYGVAFSQSFVDVRERSKGASSNRALMNLHNNEAGRKAILNNMRVECKCHGVSGSCEFKTCWKAMPPFRKVGNVLKEKFDGATEVEQSEIGSTKVLVPKNSQFKPHTDEDLVYLDSSPDFCDHDLKNGVLGTSGRQCNKTSKAIDGCELMCCGRGFHTDEVEVVERCSCKFHWCCSVKCKPCHRVVEIHTCR

How the values were obtained:
[1] = tested on: versican GFP transgenic mouse pelage DP cells; experiment: RT-PCR analysis of gene expression in DP cells co-cultured with feeder cells; assay type: cell-based; details: freshly isolated DP cells co-cultured with feeder layers
Description: Total RNA was isolated and RT PCR performed as described in Kishimoto et al. (1999) Proc. Natl Acad. Sci. USA 96:7336-7341, using an annealing temperature of 58° C. The primers employed are listed below. With the exception of Wnts 4, 5 and 7, the primers were designed to distinguish between mouse and chicken orthologues and the lack of cross reaction to chick sequences was confirmed on cDNA from feeder cells alone.
Fresh mouse pelage DP cells were obtained from versican GFP transgenic newborn skin by high-speed cell sorting (MoFLO) as described previously in Kishimoto et al., supra. Chick embryo fibroblasts (CEFs) were infected with RCASBP(A) retroviral vectors encoding chick Shh, as described in Riddle et al. (1993) Cell 75:1401-1416, Wnt3a, as described in Kengaku et al. (1998) Science 280:1274-1277, Wnt4, Wnt5a (Noramly and Morgan, in prep), or Wnt7a, as described in Riddle et al. (1995) Cell 83:631-640, or vector alone as described, as described in Morgan et al. in Methods in Cell Biology (ed. Bonner-Fraser) pp. 185-218 (Academic Press, San Diego, 1996). GFP positive mouse DP cells were added onto 30-50% confluent feeder cells to achieve a ratio of 1:3 (mouse:chick). For the flow cytometric analysis, cells were co-cultured in 24 well dishes for 48-96 hrs. […]

[2] = tested on: hair inductive activity of DP cells; experiment: Skin reconstitution assay: co-cultured DP cells plus keratinocytes grafted on nude mouse hosts; assay type: in vivo
Description: (§1) Fresh mouse pelage DP cells were obtained from versican GFP transgenic newborn skin by high-speed cell sorting (MoFLO) as described previously in Kishimoto et al., supra. Chick embryo fibroblasts (CEFs) were infected with RCASBP(A) retroviral vectors encoding chick Shh, as described in Riddle et al. (1993) Cell 75:1401-1416, Wnt3a, as described in Kengaku et al. (1998) Science 280:1274-1277, Wnt4, Wnt5a (Noramly and Morgan, in prep), or Wnt7a, as described in Riddle et al. (1995) Cell 83:631-640, or vector alone as described, as described in Morgan et al. in Methods in Cell Biology (ed. Bonner-Fraser) pp. 185-218 (Academic Press, San Diego, 1996). GFP positive mouse DP cells were added onto 30-50% confluent feeder cells to achieve a ratio of 1:3 (mouse:chick). For the flow cytometric analysis, cells were co-cultured in 24 well dishes for 48-96 hrs. For the grafting experiment co-cultured cells were passaged 2-3 times in 10 cm dishes to generate the 2×10^6 cells required for each graft.
The reconstitution assay was performed as described in Kishimoto et al., supra. Primary keratinocytes were prepared from 2 newborn pups per graft and combined with 2×10^6 DP cells in the graft chamber. Hair growth was monitored two weeks after grafting and weekly thereafter.

[3] = tested on: versican GFP transgenic mouse pelage DP cells; experiment: Flow cytometric analysis of GFP expression in DP cells co-cultured with feeder cells; assay type: cell-based; details: for GFP expression (GFP fluorescence) of DP cells: freshly isolated DP cells co-cultured with feeder cells expressing the protein, FACS analysis
Description: as §1
Cells were trypsinized and resuspended in 0.5 ml PBS with 1% BSA. Flow cytometric analysis was performed by FACScan (Becton Dickinson). DP cells were labeled with mouse MHC class II monoclonal antibody and incubated with secondary IgG conjugated to PE. The PE negative avian cells fell below the lower gate in FIG. 3 and were excluded from the analysis of GFP expression.

[4] = DP cells maintained in culture until GFP expression and hair inductive activity were lost

Row | Molecule | GFP RNA levels in DP cells [1] | reactivation of hair inductive activity in DP cells that lost it in culture [2, 4] | hair growth / hair inductive activity of co-cultured DP cells ([2]; reconstituted skin on nude mouse host, compared to cells co-cultured with control feeders or Shh expression cells) | hair in graft of treated DP cells ([2]; three weeks after grafting to nude mouse, DP cells co-cultured with feeder cells, combined with keratinocytes) | reactivation of GFP expression in DP cells that lost it in culture [3, 4] | GFP expression (GFP fluorescence) of DP cells [3]
1 | B1 | maintained | cannot reactivate | dramatic increase in hair growth | formed a dense patch of hair in the graft | cannot reactivate | maintenance of GFP fluorescence in the majority of the DP cells
2 | B2 |  |  |  |  |  | some maintenance of GFP expression but were less potent than either Wnt3a or 7a
